{"source": "patent US20220411840A1", "about": "“High Efficiency Template-Free Enzymatic Synthesis of Polynucleotides” (DNA Script, priority 2019, published 2022)", "molecules": {"B1": {"name": "M55: ACT-TdT variant: SEQ ID NO: 1 with substitutions A17V+Q37E+D41R+L52F+G57E+M63R+S94R+G98E+A108V+S146E+K147R+Q149R+C173G+M184T+R207L+K209H+M210Q+G284L+E289A+R325V+E328K+N345E+R351K (protein)", "chain": "NSSPSPVPGSQNVPAPVVKKISQYACQRRTTLNNYNELFTRALDILAENDEFRENEESCLAFRRASSVLKSLPFPITSMKDTEGIPCLGDKVKRIIEEIIEDGESSEVKAVLNDERYKSFKLFTSVFGVGLKTAEKWFRMGFRTLERIRSDKSLRFTQMQKAGFLYYEDLVSGVNRPEAEAVSTLVKEAVVTFLPDALVTMTGGFRLGHQTGHDVDFLITSPEATEDEEQQLLHKVTDFWKQQGLLLYCDILESTFEKFKQPSRKVDALDHFQKCFLILKLDHLRVHSAKSGQQEGKGWKAIRVDLVMCPYDRRAFALLGWTGSVQFKRDLRRYATHERKMMLDEHALYDKTKRVFLEAESEEEIFAHLGLDYIEPWERNA", "modifications": "truncated mouse TdT"}, "B2": {"name": "M56: G-TdT variant: SEQ ID NO: 1 with substitutions A17V+Q37E+D41R+L52F+G57E+M63R+I76V+S94R+G98E+A108V+S146E+Q149R+C173G+M184T+R207L+K209H+F259E+Q261R+K265G+G284L+E289A+R325V+E328N+R351K (protein)", "chain": "B1 chain with I76V, R147K, Q210M, F259E, Q261R, K265G, K328N, E345N", "modifications": "truncated mouse TdT"}}, "key": {"[1]": {"tested_on": "polyT primer (5′-TTTTTTTTTTTTTTTTTTTT (20T), SEQ ID NO: 8)", "assay": "Incorporation of 3′-O-azidomethyl nucleoside triphosphates (AM-dNTPs) by TdT variants on primer polyT in solution", "assay_type": "biochemical", "settings": "1 uM primer, 2 uM TdT variant, 80 uM AM-dNTP, 10% DMSO, 5 min at 37° C."}, "[2]": {"tested_on": "synGG primer (5′-TGTGAGAGTGAAATGAGG, SEQ ID NO: 7)", "assay": "Incorporation of 3′-O-azidomethyl nucleoside triphosphates (AM-dNTPs) by TdT variants on primer synGG in solution", "assay_type": "biochemical", "settings": "1 uM primer, 2 uM TdT variant, 80 uM AM-dNTP, 10% DMSO, 5 min at 37° C."}}, "note": "Residue numbers refer to the chain shown, from its start. Names and notes keep the numbering of the source."}
{"molecule": "B1", "values": [{"measurement": "Percentage of AM-dNTP Incorporation (percentage of extended primers)", "setting": "[1]; AM-dNTP: A", "value": 15, "unit": "%"}, {"measurement": "Percentage of AM-dNTP Incorporation (percentage of extended primers)", "setting": "[1]; AM-dNTP: C", "value": 69, "unit": "%"}, {"measurement": "Percentage of AM-dNTP Incorporation (percentage of extended primers)", "setting": "[1]; AM-dNTP: G", "value": 12, "unit": "%"}, {"measurement": "Percentage of AM-dNTP Incorporation (percentage of extended primers)", "setting": "[1]; AM-dNTP: T", "value": 61, "unit": "%"}, {"measurement": "Percentage of AM-dNTP Incorporation (percentage of extended primers)", "setting": "[2]; AM-dNTP: A", "value": 74, "unit": "%"}, {"measurement": "Percentage of AM-dNTP Incorporation (percentage of extended primers)", "setting": "[2]; AM-dNTP: C", "value": 86, "unit": "%"}, {"measurement": "Percentage of AM-dNTP Incorporation (percentage of extended primers)", "setting": "[2]; AM-dNTP: G", "value": 30, "unit": "%"}, {"measurement": "Percentage of AM-dNTP Incorporation (percentage of extended primers)", "setting": "[2]; AM-dNTP: T", "value": 76, "unit": "%"}]}
{"molecule": "B2", "values": [{"measurement": "Percentage of AM-dNTP Incorporation (percentage of extended primers)", "setting": "[1]; AM-dNTP: A", "value": 0, "unit": "%"}, {"measurement": "Percentage of AM-dNTP Incorporation (percentage of extended primers)", "setting": "[1]; AM-dNTP: C", "value": 27, "unit": "%"}, {"measurement": "Percentage of AM-dNTP Incorporation (percentage of extended primers)", "setting": "[1]; AM-dNTP: G", "value": 15, "unit": "%"}, {"measurement": "Percentage of AM-dNTP Incorporation (percentage of extended primers)", "setting": "[1]; AM-dNTP: T", "value": 52, "unit": "%"}, {"measurement": "Percentage of AM-dNTP Incorporation (percentage of extended primers)", "setting": "[2]; AM-dNTP: A", "value": 4, "unit": "%"}, {"measurement": "Percentage of AM-dNTP Incorporation (percentage of extended primers)", "setting": "[2]; AM-dNTP: C", "value": 68, "unit": "%"}, {"measurement": "Percentage of AM-dNTP Incorporation (percentage of extended primers)", "setting": "[2]; AM-dNTP: G", "value": 65, "unit": "%"}, {"measurement": "Percentage of AM-dNTP Incorporation (percentage of extended primers)", "setting": "[2]; AM-dNTP: T", "value": 71, "unit": "%"}]}
